Data: patent US9750803B2, “Lipid vesicle compositions and methods of use” (priority 2010, dated 2017)

How the values were obtained:
C57Bl/6 mice [1] = test: Example 2 vaccination: anti-OVA IgG serum titers by ELISA; assay type: in vivo, mouse; conditions: low dose of MPLA (0.1 μg), two boosts, day 56
Procedure: (§1) Vaccination study with ICMVs. Groups of C57Bl/6 mice (Jackson Laboratories) were immunized s.c. in the tail base with indicated doses of OVA (with or without TLR agonist MPLA). Frequencies of OVA-specific CD8^+ T-cells and their phenotypes elicited by immunization were determined by flow cytometry analysis of PBMCs at selected time points following staining with DAPI (to discriminate live/dead cells), anti-CD8 alpha, anti-CD44, anti-CD62L, and […]/H-2K^b peptide-MHC tetramers (Becton Dickinson). To assess functionality of primed CD8^+ T-cells, PBMCs were stimulated ex vivo with 1 μM OVA-peptide […] for 6 hrs with GolgiPlug (Becton Dickinson), fixed, permeabilized, stained with anti-IFN-gamma and CD8 alpha, and analyzed by flow cytometry. Anti-OVA IgG titers, defined as the dilution of sera at which 450 nm OD reading is 0.5, were determined by ELISA analysis of sera from immunized mice. Animals were cared for following NIH, state, and local guidelines.

C57Bl/6 mice [2] = test: Example 2 vaccination: tetramer+ OVA-specific CD8+ T-cells in PBMCs; assay type: in vivo, mouse; conditions: mixed with 0.1 μg MPLA
Procedure: as §1

[3] = system: OVA-specific naïve OT-I CD8+ T-cells; test: CFSE dilution proliferation assay of OT-I CD8+ T-cells co-cultured with pulsed splenic DCs; assay type: cell-based; conditions: DCs pulsed with 0.7 μg/mL OVA equivalent, 0.1 μg/mL MPLA, day 3
Procedure: FIGS. 7A-7C. In vitro stimulation of immune responses by ICMVs supplemented with the TLR agonist MPLA. (A) Flow cytometry analysis of expression of the cell surface costimulatory markers CD40, CD80, and CD86 on splenic dendritic cells (DCs) after 18 hr incubation with 0.7 μg/mL soluble OVA, equivalent doses of OVA loaded in ICMVs, or ICMVs loaded with an irrelevant protein (vivax malaria protein, VMP), in the presence or absence of 0.1 μg/mL MPLA. (B) Splenic DCs were incubated for 18 hr with 10 μg/mL […] peptide (OVA257-264), 5.0 μg/mL soluble OVA, equivalent doses of OVA loaded in ICMVs, or VMP-loaded ICMVs in the presence or absence of 0.05 μg/mL MPLA, and the extent of cross-presentation of OVA was assessed by flow cytometry analysis of cells stained with the 25-D1.16 mAb that recognizes […] complexed with H-2K^b. (C) 5-(6)-carboxyfluorescein diacetate succinimidyl diester (CFSE)-labeled OVA-specific naïve OT-I CD8^+ T-cells were co-cultured with syngeneic splenic DCs pulsed with soluble 0.7 μg/mL OVA mixed with 0.1 μg/mL MPLA, or equivalent doses of OVA-loaded ICMVs mixed with MPLA. Empty ICMVs without antigen or ICMVs loaded with the irrelevant antigen VMP were included as negative controls. Proliferation of CD8^+ T-cells was assessed on day 3 by flow cytometry analysis of the dilution of CFSE in the OT-I CD8^+ T-cells; shown are histograms of CFSE fluorescence. […]

CD45.1+ recipient mice = test: Expansion of adoptively transferred OT-II CD4+ T-cells after immunization; assay type: in vivo, mouse; conditions: eight days post priming
Procedure: (§2) Germinal center and follicular helper T cell analysis. Mice were immunized s.c. with 5 μg of MPLA and 100 μg of OVA-alexa fluor 555 in either soluble or ICMV formulations (lipids labeled with DiD). At serial time-points, dLNs were isolated, flash-frozen, cryo-sectioned, and examined by confocal microscopy. To identify cell types associated with particles, dLNs were isolated on d 1 or 4, stained with anti-CD11b, anti-CD11c, anti-CD169, anti-CD205, and F4/80, and analyzed by flow cytometry. To assess GC formation, dLNs were isolated on d14 from mice immunized with 1 μg of unlabeled soluble VMP or VMP-ICMVs (both with 0.1 μg MPLA), stained with anti-B220, anti-IgD, anti-GL-7 (BD), peanut agglutinin (Vectorlabs, Burlingame, Calif.), and analyzed by flow cytometry or confocal microscopy. To monitor antigen-specific CD4+ T-cells, […] OVA-specific CD4+ T cells from OT-II (CD45.2+) mice were adoptively transferred i.v. into recipient congenic CD45.1+ mice. After 1 d, recipient mice were immunized s.c. with 10 μg of OVA in either soluble or ICMV formulations, both with 1 μg MPLA. A second comparison group of mice were immunized s.c. with 100 μg OVA in alum. The frequencies of OVA-specific CD4+ T cells and their phenotypes in spleens and dLNs were determined by flow cytometry analysis, following staining with DAPI, anti-CD4, anti-CD45.2, anti-PD-1, and anti-CXCR5 (BD).

C57Bl/6 mice [4] = test: Epitope analysis of anti-VMP sera on VMP peptide fragments; assay type: in vivo, mouse; conditions: d 90
Procedure: (§3) Immunizations. Animals were cared for following NIH, state, and local guidelines. Groups of 6-10-wk old female C57Bl/6 mice (Jackson Laboratories, Bar Harbor, Me.) were immunized s.c. at the tail base with VMP-ICMVs and indicated doses of MPLA (Sigma-Aldrich, St. Louis, Mo.) in 100 μL PBS on day 0 and 21. Control immunizations with soluble VMP were performed using MPLA, Montanide ISA-50 V2 (Seppic, N.J.), or alum (Imject alum, Pierce, Rockford, Ill.) at an adjuvant:protein solution vol. ratio of 1:1 following the manufacturer's instructions.
(§4) Characterization of anti-VMP humoral responses. Sera were analyzed for IgG, IgG1, and IgG2c antibodies by ELISA using VMP-coated plates (Bell et al. 2009 Vaccine 27:1448-1453). Anti-VMP IgG titers were defined as the lowest serum dilution at which the ELISA OD reading was ≧0.5. Avidity measurements were performed by incubating plates with 6 M urea for 10 min at 20° C. to remove weakly bound IgG prior to addition of detection Ab. The avidity index was defined as (IgG titer with 6 M urea/IgG titer without urea)×100. […] Splenocytes isolated 7 d after boost vaccinations were restimulated ex vivo with either PBS or VMP-ICMV at 2 μg/ml, and on d2, cytokine levels in the culture supernatants were measured by flow cytometry (Cytometric Bead Array, BD).

C57Bl/6 mice [5] = test: Example 3 immunization: anti-VMP IgG serum titers and isotypes by ELISA; assay type: in vivo, mouse
Procedure: as §3, §4

mice [6] = test: Germinal center analysis in draining lymph nodes; assay type: in vivo, mouse; conditions: 100 ng VMP, with MPLA, histological analysis
Procedure: as §2, with “To assess GC formation, dLNs were isolated on d14 from mice immunized with 1 μg of unlabeled soluble VMP or VMP-ICMVs (both with 0.1 μg MPLA), stained with anti-B220, anti-IgD, anti-GL-7 (BD), peanut agglutinin (Vectorlabs, Burlingame, Calif.), and analyzed by flow cytometry or confocal microscopy.” left out

mice [7] = test: Antigen delivery to draining lymph nodes (histology at serial time-points); assay type: in vivo, mouse; conditions: s.c., with MPLA
Procedure: as §2

ovalbumin [soluble OVA]
Anti-OVA serum IgG response (C57Bl/6 mice [1]): barely detectable antibody response | Antigen-specific T-cell expansion by tetramer staining (C57Bl/6 mice [2]): barely detectable | Proliferation of OT-I CD8+ T-cells [3]: weak T-cell responses | Expansion of OT-II CD4+ T-cells in spleens, fold compared to PBS (CD45.1+ recipient mice): ~6.3 fold

B1: soluble VMP: recombinant vivax malaria protein (VMP001, SEQ ID NO:1) given as soluble protein with MPLA, Montanide or alum (protein)
chain: THCGHNVDLSKAINLNGVNFNNVDASSLGAAHVGQSASRGRGLGENPDDEEGDAKKKKDGKKAEPKNPRENKLKQPGDRADGQAAGNGAGGQPAGDRAAGQPAGDRAAGQPAGDGAAGQPAGDRADGQPAGDRADGQPAGDRAAGQAAGNGAGGQAAANGAGNQPGGGNAANKKAEDAGGNAGGNAGGQGQNNEGANAPNEKSVKEYLDKVRATVGTEWTPCSVTCGVGVRVRRRVNAANKKPEDLTLNDLETDVCT
modifications: VMP Amino Acid Sequence
Recognition of the AGDR motif by sera (C57Bl/6 mice [4]): did not recognize | Fold more protein required to elicit a response than VMP-ICMVs (C57Bl/6 mice [5]; mixed with MPLA or adjuvanted with Montanide or alum): at least 10 fold | Antigen-specific IgG isotype response (C57Bl/6 mice [5]; with MPLA, d 90): only Th2-skewed IgG1 antibodies | GCs per dLN (mice [6]): complete absence

B2: ovalbumin (protein, UniProt P01012 2-386, looked up)
Ovalbumin: GSIGAASMEFCFDVFKELKVHHANENIFYCPIAIMSALAMVYLGAKDSTRTQINKVVRFDKLPGFGDSIEAQCGTSVNVHSSLRDILNQITKPNDVYSFSLASRLYAEERYPILPEYLQCVKELYRGGLEPINFQTAADQARELINSWVESQTNGIIRNVLQPSSVDSQTAMVLVNAIVFKGLWEKAFKDEDTQAMPFRVTEQESKPVQMMYQIGLFRVASMASEKMKILELPFASGTMSMLVLLPDEVSGLEQLESIINFEKLTEWTSSNVMEERKIKVYLPRMKMEEKYNLTSVLMAMGITDVFSSSANLSGISSAESLKISQAVHAAHAEINEAGREVVGSAEAGVDAASVSEEFRADHPFLFCIKHIATNAVLFFGRCVSP
Time at which antigen was detected in dLNs (mice [7]): ≤ 4 h
